Binding signal (fold inhibition of binding vs DMSO) data for one substance are collected here from paper doi:10.1101/411793.

This series relates to DosR (phosphorylated) (Mycobacterium tuberculosis). Briefly: EMSA.

The substance hspX promoter probe came in with a binding signal (fold inhibition of binding vs DMSO) of 22.
